Results from US20230226151A1 (NGM BIOPHARMACEUTICALS, published 2023).

Target: Mouse FGFR4/β-klotho complex co-expressed in L6 cells (mouse, UniProt Q03142 17-799; Q99N32 1-1043)
Assay: cell-based or functional assay

Sequence of Mouse FGFR4/β-klotho complex co-expressed in L6 cells (Q03142 17-799, chain 1 of 2): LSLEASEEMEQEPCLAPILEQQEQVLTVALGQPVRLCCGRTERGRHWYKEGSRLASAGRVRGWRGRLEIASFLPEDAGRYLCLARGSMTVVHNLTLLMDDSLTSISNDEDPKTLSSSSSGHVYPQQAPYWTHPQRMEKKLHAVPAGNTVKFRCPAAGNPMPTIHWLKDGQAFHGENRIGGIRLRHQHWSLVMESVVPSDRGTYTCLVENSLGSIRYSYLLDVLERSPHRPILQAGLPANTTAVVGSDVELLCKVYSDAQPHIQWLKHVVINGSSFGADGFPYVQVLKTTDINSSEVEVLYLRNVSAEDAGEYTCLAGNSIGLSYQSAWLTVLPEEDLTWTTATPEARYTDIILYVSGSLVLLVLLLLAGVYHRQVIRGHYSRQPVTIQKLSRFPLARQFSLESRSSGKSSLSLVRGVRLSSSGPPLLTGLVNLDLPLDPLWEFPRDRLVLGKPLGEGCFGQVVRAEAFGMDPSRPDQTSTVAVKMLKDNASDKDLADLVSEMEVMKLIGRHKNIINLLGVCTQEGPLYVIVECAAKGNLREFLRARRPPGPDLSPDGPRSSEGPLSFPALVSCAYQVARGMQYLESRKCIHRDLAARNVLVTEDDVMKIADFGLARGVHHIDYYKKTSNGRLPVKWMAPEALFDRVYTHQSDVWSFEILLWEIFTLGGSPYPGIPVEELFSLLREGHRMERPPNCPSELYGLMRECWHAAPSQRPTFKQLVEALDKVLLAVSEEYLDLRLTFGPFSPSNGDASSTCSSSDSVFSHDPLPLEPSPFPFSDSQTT
Sequence of Mouse FGFR4/β-klotho complex co-expressed in L6 cells (Q99N32 whole entry, chain 2 of 2): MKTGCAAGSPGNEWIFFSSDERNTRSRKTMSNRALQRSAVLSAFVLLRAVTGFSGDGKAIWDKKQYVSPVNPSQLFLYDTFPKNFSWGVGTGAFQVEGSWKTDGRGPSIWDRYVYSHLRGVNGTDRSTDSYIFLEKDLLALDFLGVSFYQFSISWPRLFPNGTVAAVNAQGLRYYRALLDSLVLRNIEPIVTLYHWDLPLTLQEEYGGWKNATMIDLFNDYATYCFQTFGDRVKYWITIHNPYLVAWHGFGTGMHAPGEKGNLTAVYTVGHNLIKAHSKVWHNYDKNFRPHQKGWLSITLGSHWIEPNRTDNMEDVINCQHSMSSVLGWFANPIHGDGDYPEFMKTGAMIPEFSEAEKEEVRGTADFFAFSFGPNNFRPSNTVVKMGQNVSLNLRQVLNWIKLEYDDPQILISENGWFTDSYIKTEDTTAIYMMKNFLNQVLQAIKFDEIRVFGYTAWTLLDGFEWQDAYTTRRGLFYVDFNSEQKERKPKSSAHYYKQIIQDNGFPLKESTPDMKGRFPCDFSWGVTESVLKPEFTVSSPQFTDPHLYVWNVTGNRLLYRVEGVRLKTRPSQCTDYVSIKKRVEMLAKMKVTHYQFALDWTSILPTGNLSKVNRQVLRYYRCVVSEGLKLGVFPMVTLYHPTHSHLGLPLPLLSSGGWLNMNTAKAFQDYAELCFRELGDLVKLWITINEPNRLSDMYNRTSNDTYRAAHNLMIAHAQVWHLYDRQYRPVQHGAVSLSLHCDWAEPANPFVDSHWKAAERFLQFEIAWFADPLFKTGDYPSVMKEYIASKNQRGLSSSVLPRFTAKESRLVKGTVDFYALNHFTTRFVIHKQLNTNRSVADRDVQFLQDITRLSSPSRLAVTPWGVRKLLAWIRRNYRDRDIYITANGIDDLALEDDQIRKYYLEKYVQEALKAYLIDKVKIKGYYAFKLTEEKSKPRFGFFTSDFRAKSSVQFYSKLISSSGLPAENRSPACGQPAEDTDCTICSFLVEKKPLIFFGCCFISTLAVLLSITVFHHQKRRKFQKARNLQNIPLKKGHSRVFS

EC50 (pM), ELK1 luciferase reporter in L6 cells: 38.3 pM
Emax (fold potentiation), ELK1 luciferase reporter in L6 cells: 1.85 fold potentiation
B1: M70 (FGF19 variant) (ligand)
chain: MRDSSPLVHYGWGDPIRLRHLYTSGPHGLSSCFLRIRADGVVDCARGQSAHSLLEIKAVALRTVAIKGVHSVRYLCMGADGKMQGLLQYSEEDCAFEEEIRPDGYNVYRSEKHRLPVSLSSAKQRQLYKNRGFLPLSHFLPMLPMVPEEPEDLRGHLESDMFSSPLETDSMDPFGLVTGLEAVRSPSFEK
